Test results from patent US20210230279A1 (University of California, published 2021).
Substitutions are numbered along the chain they refer to. Blank lines part the entries; values can stand above or below the binder they belong to.

Columns and labels:
[1] = molecular target: T1, recombinant human integrin αvβ1 (human, UniProt P05556 21-728); experiment: ELISA on coated recombinant human integrin; 0 = no apparent binding
T1 construct: Bought; also called αvβ1 (R&D systems)
Source text: (§1) Binding was quantified by intensity as 0-4 (0 representing no apparent binding; 4 representing robust binding) and results normalized to expression.

[2] = molecular target: T2, recombinant human integrin αvβ5 (human, UniProt P18084 24-719); experiment: as above
T2 construct: Bought; also called αvβ5 (R&D systems)
T2 sequence (chain, as listed by the source limits assumed, chain 1 of 2): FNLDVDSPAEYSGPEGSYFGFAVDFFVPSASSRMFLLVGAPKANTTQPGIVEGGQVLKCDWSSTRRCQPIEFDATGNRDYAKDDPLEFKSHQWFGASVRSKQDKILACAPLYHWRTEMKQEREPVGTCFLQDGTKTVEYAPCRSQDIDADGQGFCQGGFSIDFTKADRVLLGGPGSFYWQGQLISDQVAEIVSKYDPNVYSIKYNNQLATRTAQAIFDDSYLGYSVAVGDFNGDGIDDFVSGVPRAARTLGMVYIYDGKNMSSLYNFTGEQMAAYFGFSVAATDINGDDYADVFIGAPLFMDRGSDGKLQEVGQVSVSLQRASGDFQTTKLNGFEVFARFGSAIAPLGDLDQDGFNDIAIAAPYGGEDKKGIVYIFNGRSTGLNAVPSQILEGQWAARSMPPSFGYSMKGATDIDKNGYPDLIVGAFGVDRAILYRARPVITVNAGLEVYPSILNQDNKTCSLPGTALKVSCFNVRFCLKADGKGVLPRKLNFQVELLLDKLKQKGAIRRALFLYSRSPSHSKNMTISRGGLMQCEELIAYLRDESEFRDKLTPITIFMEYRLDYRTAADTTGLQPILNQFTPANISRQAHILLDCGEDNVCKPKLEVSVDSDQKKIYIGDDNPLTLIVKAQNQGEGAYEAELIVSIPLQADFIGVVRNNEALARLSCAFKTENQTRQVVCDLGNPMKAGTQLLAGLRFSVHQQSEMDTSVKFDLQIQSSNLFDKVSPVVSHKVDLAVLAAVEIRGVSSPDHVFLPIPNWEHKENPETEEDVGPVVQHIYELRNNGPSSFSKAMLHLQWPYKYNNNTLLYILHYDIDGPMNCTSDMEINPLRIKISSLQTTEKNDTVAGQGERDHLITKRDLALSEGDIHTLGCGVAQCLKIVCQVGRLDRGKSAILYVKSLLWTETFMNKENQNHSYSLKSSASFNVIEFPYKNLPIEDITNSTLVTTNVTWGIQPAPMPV
T2 sequence (P18084 24-719 limits assumed, chain 2 of 2): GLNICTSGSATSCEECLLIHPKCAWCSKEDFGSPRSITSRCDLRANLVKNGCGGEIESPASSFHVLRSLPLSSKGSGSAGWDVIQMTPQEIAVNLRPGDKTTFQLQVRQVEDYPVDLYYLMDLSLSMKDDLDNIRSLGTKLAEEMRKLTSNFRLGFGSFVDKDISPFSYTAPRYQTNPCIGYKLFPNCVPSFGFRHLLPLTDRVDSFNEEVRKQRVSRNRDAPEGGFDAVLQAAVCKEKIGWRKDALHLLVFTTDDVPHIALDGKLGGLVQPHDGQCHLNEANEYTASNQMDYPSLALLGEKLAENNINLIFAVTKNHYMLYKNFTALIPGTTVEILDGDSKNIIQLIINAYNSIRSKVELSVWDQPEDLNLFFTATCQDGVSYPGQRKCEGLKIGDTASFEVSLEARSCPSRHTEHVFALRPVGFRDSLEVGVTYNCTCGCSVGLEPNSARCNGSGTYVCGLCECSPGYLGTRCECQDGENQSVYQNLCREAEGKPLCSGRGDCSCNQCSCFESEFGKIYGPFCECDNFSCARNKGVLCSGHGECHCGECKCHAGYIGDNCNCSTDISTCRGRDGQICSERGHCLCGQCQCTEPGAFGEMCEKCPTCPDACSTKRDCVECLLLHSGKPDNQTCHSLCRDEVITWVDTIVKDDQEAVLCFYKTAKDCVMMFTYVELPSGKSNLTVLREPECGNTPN
Source text: as §1

[3] = molecular target: T3, recombinant human integrin αvβ8 (human, UniProt P06756 31-992; P26012 43-684); experiment: as above
T3 construct: also called Human Integrin alpha V beta 8; purified recombinant αvβ8
T3 sequence (P06756 31-992 limits assumed, chain 1 of 2): as the sequence (chain, as listed by the source limits assumed, chain 1 of 2) above
T3 sequence (P26012 43-684 limits assumed, chain 2 of 2): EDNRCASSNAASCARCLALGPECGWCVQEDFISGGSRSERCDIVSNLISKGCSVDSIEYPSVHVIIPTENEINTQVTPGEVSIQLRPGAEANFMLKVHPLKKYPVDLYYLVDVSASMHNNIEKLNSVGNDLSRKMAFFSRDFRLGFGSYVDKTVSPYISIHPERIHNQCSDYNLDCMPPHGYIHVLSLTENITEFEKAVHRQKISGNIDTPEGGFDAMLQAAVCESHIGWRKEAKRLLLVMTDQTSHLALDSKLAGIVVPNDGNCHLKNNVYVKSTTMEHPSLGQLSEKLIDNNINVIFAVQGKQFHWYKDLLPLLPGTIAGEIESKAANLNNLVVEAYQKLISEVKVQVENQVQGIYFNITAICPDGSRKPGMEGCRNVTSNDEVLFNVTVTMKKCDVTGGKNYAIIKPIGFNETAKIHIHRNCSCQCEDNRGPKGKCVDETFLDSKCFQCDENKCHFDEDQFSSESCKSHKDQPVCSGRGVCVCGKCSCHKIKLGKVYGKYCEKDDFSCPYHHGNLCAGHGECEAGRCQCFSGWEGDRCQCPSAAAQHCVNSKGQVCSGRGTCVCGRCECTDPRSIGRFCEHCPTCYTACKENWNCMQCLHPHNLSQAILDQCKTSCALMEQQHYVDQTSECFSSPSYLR
Source text: as §1

[4] = molecular target: T4, recombinant human integrin αvβ3 (human, UniProt P05106 27-718); experiment: as above
T4 construct: Bought; also called αvβ3 (R&D systems)
T4 sequence (chain, as listed by the source limits assumed, chain 1 of 2): as the sequence (chain, as listed by the source limits assumed, chain 1 of 2) above
T4 sequence (P05106 27-718 limits assumed, chain 2 of 2): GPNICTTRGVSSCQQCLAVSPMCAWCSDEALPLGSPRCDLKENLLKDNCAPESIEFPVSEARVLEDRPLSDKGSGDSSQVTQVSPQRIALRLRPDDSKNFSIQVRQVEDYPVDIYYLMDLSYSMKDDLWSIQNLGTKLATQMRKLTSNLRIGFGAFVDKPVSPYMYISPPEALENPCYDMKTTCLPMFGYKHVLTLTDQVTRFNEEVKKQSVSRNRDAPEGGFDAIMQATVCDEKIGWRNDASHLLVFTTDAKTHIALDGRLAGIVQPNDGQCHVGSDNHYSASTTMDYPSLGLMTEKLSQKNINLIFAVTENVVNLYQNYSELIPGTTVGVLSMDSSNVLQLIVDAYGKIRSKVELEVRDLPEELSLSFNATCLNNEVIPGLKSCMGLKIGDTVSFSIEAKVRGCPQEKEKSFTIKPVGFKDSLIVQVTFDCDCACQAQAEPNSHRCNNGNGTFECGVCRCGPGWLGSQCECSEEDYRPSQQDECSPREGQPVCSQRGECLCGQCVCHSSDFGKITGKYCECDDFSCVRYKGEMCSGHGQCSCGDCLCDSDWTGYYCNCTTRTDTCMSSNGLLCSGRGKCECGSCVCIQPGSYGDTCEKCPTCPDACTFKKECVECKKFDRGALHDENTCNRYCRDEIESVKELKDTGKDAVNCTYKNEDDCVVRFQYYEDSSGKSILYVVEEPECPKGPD
Source text: as §1

[5] = molecular target: T5, recombinant human integrin αvβ6 (human, UniProt P18564 22-707); experiment: ELISA: integrin coated on plate, supernatant of transfected 293 cells at 1/10 dilution, anti-mouse IgG-HRP; score normalized to expression;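 note: scale runs from 0 (no apparent binding) to 4 (robust binding), with scores adjusted for clone protein expression as determined by a murine IgG ELISA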
T5 construct: also called αvβ6 (R&D systems); αvβ6 receptor
T5 sequence (chain, as listed by the source limits assumed, chain 1 of 2): as the sequence (chain, as listed by the source limits assumed, chain 1 of 2) above
T5 sequence (P18564 22-707 limits assumed, chain 2 of 2): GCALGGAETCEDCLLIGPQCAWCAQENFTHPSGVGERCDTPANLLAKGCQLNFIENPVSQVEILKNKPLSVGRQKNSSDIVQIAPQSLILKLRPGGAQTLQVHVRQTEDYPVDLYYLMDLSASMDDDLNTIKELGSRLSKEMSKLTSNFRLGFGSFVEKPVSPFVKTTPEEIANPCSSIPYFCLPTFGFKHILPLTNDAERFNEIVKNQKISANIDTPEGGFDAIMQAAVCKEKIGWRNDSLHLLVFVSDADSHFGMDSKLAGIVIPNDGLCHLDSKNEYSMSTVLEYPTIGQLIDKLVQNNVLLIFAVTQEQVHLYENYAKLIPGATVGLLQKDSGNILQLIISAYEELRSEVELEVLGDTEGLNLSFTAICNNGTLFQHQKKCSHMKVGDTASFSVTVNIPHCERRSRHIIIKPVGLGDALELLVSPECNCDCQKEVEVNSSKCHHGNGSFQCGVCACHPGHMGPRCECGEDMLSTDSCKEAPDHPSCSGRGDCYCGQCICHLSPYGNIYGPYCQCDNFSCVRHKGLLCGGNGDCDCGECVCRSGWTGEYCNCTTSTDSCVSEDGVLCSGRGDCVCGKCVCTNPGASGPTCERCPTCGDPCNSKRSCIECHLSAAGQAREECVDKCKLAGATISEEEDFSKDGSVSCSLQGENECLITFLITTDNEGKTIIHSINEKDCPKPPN
Source text: as §1

[6] = molecular target: T3, recombinant human integrin αvβ8; experiment: as above
Source text: as §1

[7] = molecular target: T4, recombinant human integrin αvβ3; experiment: as above
Source text: as §1

[8] = molecular target: T5, recombinant human integrin αvβ6; experiment: ELISA on coated recombinant human integrin; 0 = no apparent binding
Source text: as §1

[9] = molecular target: T3, recombinant human integrin αvβ8; experiment: scFv yeast display selection

T1 sequence (chain, as listed by the source limits assumed, chain 1 of 2): as the sequence (chain, as listed by the source limits assumed, chain 1 of 2) above
T1 sequence (P05556 21-728 limits assumed, chain 2 of 2): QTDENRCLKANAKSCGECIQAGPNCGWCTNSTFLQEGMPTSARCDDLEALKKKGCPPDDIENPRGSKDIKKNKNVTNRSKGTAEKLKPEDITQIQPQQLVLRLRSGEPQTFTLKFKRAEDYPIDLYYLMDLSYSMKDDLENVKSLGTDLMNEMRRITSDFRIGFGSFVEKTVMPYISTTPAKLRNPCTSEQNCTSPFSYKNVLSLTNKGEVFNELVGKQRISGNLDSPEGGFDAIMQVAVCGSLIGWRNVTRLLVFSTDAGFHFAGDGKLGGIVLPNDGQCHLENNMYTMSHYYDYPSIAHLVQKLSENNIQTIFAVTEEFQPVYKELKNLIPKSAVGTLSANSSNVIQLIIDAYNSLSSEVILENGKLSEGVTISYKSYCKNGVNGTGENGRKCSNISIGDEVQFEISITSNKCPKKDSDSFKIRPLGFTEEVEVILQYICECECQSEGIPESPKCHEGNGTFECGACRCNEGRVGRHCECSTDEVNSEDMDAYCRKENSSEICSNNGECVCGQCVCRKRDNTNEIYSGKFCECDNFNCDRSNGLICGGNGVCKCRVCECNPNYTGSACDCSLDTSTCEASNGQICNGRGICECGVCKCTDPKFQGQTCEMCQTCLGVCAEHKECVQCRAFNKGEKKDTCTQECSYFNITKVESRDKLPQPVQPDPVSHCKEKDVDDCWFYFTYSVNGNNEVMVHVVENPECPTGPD

B1: C6 VH / RGD3-10 Vk murine IgG (antibody, V domains shown)
VH: QIQLLQSGPELKKPGETVKISCKASGYTFTDYSMHWVKQAPGKGLKWVARINTETGEPTFADDFRGRFAVSLETSASTAYLQINNLKNEDTATYFCAIFYYGRDSWGQGTTLTVSS
VL: DIVMTQSPSSLAVSAGEKVTMSCKSSQSLLGRGDLGRLKKQKDHWYQQKPGQSPRLLIYWASTRESGVPDRFTGSGSGTDFTLTISSVQAEDLAVYYCKQSYNLLSFGAGTKLELKR
notes: Murine IgG, supernatant of 293 cells; CDRL1 swap into the C6D4 murine IgG vector, VH not altered; also called C6RGD3-10
binding result [1]: no binding (tested: supernatant at 1/10 dilution)
binding result [2]: no binding (tested: supernatant at 1/10 dilution)
binding result [3]: no binding (tested: supernatant at 1/10 dilution)
binding result [4]: no binding (tested: supernatant at 1/10 dilution)
binding intensity score (0-4) [5]: 1 score 0-4

B2: C6 VH / RGD3-7 Vk murine IgG (antibody, V domains shown)
VH: B1 VH
VL: DIVMTQSPSSLAVSAGEKVTMSCKSSQSLLGRGDLGRLNALAWYQQKPGQSPRLLIYWASTRESGVPDRFTGSGSGTDFTLTISSVQAEDLAVYYCKQSYNLLSFGAGTKLELKR
notes: Murine IgG, supernatant of 293 cells; CDRL1 swap into the C6D4 murine IgG vector, VH not altered; also called C6RGD3-7
binding result [1]: no binding (tested: supernatant at 1/10 dilution)
binding result [2]: no binding (tested: supernatant at 1/10 dilution)
binding intensity score (0-4) [5]: 2 score 0-4
binding intensity score (0-4) [6]: 2 score 0-4
binding intensity score (0-4) [7]: 4 score 0-4

B3: C6 VH / RGD3-2 Vk murine IgG (antibody, V domains shown)
VH: B1 VH
VL: DIVMTQSPSSLAVSAGEKVTMSCKSSQSLLGRGDLGRLKKQKDNALAWYQQKPGQSPRLLIYWASTRESGVPDRFTGSGSGTDFTLTISSVQAEDLAVYYCKQSYNLLSFGAGTKLELKR
notes: Murine IgG, supernatant of 293 cells; CDRL1 swap into the C6D4 murine IgG vector, VH not altered; also called C6RGD3-2
binding result [1]: no binding (tested: supernatant at 1/10 dilution)
binding result [2]: no binding (tested: supernatant at 1/10 dilution)
binding result [4]: no binding (tested: supernatant at 1/10 dilution)
binding intensity score (0-4) [5]: 4 score 0-4
binding intensity score (0-4) [6]: 4 score 0-4

B4: C6 VH / RGD3-3 Vk murine IgG (antibody, V domains shown)
VH: B1 VH
VL: DIVMTQSPSSLAVSAGEKVTMSCKSSQSLLGRGDLGRLKKQKNALAWYQQKPGQSPRLLIYWASTRESGVPDRFTGSGSGTDFTLTISSVQAEDLAVYYCKQSYNLLSFGAGTKLELKR
notes: Murine IgG, supernatant of 293 cells; CDRL1 swap into the C6D4 murine IgG vector, VH not altered; also called C6RGD3-3
binding result [1]: no binding (tested: supernatant at 1/10 dilution)
binding result [2]: no binding (tested: supernatant at 1/10 dilution)
binding result [4]: no binding (tested: supernatant at 1/10 dilution)
binding intensity score (0-4) [5]: 4 score 0-4
binding intensity score (0-4) [6]: 4 score 0-4

B5: C6 VH / RGD3-4 Vk murine IgG (antibody, V domains shown)
VH: B1 VH
VL: DIVMTQSPSSLAVSAGEKVTMSCKSSQSLLGRGDLGRLKKQNALAWYQQKPGQSPRLLIYWASTRESGVPDRFTGSGSGTDFTLTISSVQAEDLAVYYCKQSYNLLSFGAGTKLELKR
notes: Murine IgG, supernatant of 293 cells; CDRL1 swap into the C6D4 murine IgG vector, VH not altered; also called C6RGD3-4
binding result [1]: no binding (tested: supernatant at 1/10 dilution)
binding result [2]: no binding (tested: supernatant at 1/10 dilution)
binding result [4]: no binding (tested: supernatant at 1/10 dilution)
binding intensity score (0-4) [5]: 4 score 0-4
binding intensity score (0-4) [6]: 4 score 0-4

B6: C6 VH / RGD3-1 Vk murine IgG (antibody, V domains shown)
VH: B1 VH
VL: DIVMTQSPSSLAVSAGEKVTMSCKSSQSLLGRGDLGRLKKQKDHNALAWYQQKPGQSPRLLIYWASTRESGVPDRFTGSGSGTDFTLTISSVQAEDLAVYYCKQSYNLLSFGAGTKLELKR
notes: Murine IgG, supernatant of 293 cells; CDRL1 swap into the C6D4 murine IgG vector, VH not altered; also called C6RGD3-1
binding result [1]: no binding (tested: supernatant at 1/10 dilution)
binding result [2]: no binding (tested: supernatant at 1/10 dilution)
binding result [4]: no binding (tested: supernatant at 1/10 dilution)
binding intensity score (0-4) [5]: 4 score 0-4
binding intensity score (0-4) [6]: 1 score 0-4

B7: C6 VH / RGD3-8 Vk murine IgG (antibody, V domains shown)
VH: B1 VH
VL: DIVMTQSPSSLAVSAGEKVTMSCKSSQSLLGRGDLGRNALAWYQQKPGQSPRLLIYWASTRESGVPDRFTGSGSGTDFTLTISSVQAEDLAVYYCKQSYNLLSFGAGTKLELKR
notes: Murine IgG, supernatant of 293 cells; CDRL1 swap into the C6D4 murine IgG vector, VH not altered; also called C6RGD3-8
binding result [1]: no binding (tested: supernatant at 1/10 dilution)
binding result [2]: no binding (tested: supernatant at 1/10 dilution)
binding intensity score (0-4) [5]: 3 score 0-4
binding intensity score (0-4) [6]: 3 score 0-4
binding intensity score (0-4) [7]: 3 score 0-4

B8: C6 VH / RGD3-6 Vk murine IgG (antibody, V domains shown)
VH: B1 VH
VL: DIVMTQSPSSLAVSAGEKVTMSCKSSQSLLGRGDLGRLKNALAWYQQKPGQSPRLLIYWASTRESGVPDRFTGSGSGTDFTLTISSVQAEDLAVYYCKQSYNLLSFGAGTKLELKR
notes: Murine IgG, supernatant of 293 cells; CDRL1 swap into the C6D4 murine IgG vector, VH not altered; also called C6RGD3-6
binding result [1]: no binding (tested: supernatant at 1/10 dilution)
binding result [2]: no binding (tested: supernatant at 1/10 dilution)
binding result [4]: no binding (tested: supernatant at 1/10 dilution)
binding intensity score (0-4) [5]: 4 score 0-4
binding intensity score (0-4) [6]: 4 score 0-4

B11: clone 44 (scFv, yeast display) (scFv, V domains shown)
VH: B1 VH with F99Y
VL: DIVMSQSPSSLAVSAGEKVTMSCKSSQSLLNSRTRKNYLAWYQQKPGQSPRLLIYWASTRESGVPDRFTGSGSGTDFTLTISSVQDEDLAVYYCKQSYNLLTFGAGTKLELKA
notes: scFv on yeast
binding result [9]: binds

B14: clone 29 (scFv, yeast display) (scFv, V domains shown)
VH: B1 VH with F99Y
VL: B11 VL with D86A
notes: scFv on yeast
binding result [9]: binds

More lines, main results first:

binding intensity score (0-4) [6]: 1 score 0-4
B9: C6 VH / RGD1 Vk murine IgG (antibody, V domains shown)
VH: B1 VH
VL: DIVMTQSPSSLAVSAGEKVTMSCKSSQSLLGRGDLGNALAWYQQKPGQSPRLLIYWASTRESGVPDRFTGSGSGTDFTLTISSVQAEDLAVYYCKQSYNLLSFGAGTKLELKR
notes: Murine IgG, supernatant of 293 cells; CDRL1 swap into the C6D4 murine IgG vector, VH not altered; also called C6D4-RGD1; C6RGD1
binding result [1]: no binding (tested: supernatant at 1/10 dilution)
binding result [8]: no binding (tested: supernatant at 1/10 dilution)
binding result [2]: no binding (tested: supernatant at 1/10 dilution)
binding result [4]: no binding (tested: supernatant at 1/10 dilution)

binding intensity score (0-4) [6]: 2 score 0-4
B10: C6 VH / RGD2 Vk murine IgG (antibody, V domains shown)
VH: B1 VH
VL: B2 VL with G31N, R32S, D34R, L35G, G36D, R37L, L38G
notes: Murine IgG, supernatant of 293 cells; CDRL1 of the C6D4 murine IgG vector replaced by the printed loop, VH not altered; also called C6D4-RGD2; C6RGD2
binding result [1]: no binding (tested: supernatant at 1/10 dilution)
binding result [8]: no binding (tested: supernatant at 1/10 dilution)
binding result [2]: no binding (tested: supernatant at 1/10 dilution)
binding result [4]: no binding (tested: supernatant at 1/10 dilution)

binding intensity score (0-4) [5]: 2 score 0-4
binding intensity score (0-4) [6]: 1 score 0-4
B12: C6 VH / RGD3-11 Vk murine IgG (antibody, V domains shown)
VH: B1 VH
VL: B8 VL with N40K, A41Q, L42K, A43D
notes: Murine IgG, supernatant of 293 cells; CDRL1 swap into the C6D4 murine IgG vector, VH not altered; also called C6RGD3-11
binding result [1]: no binding (tested: supernatant at 1/10 dilution)
binding result [2]: no binding (tested: supernatant at 1/10 dilution)
binding result [4]: no binding (tested: supernatant at 1/10 dilution)

binding intensity score (0-4) [5]: 3 score 0-4
B13: C6 VH / RGD3-9 Vk murine IgG (antibody, V domains shown)
VH: B1 VH
VL: B5 VL with N42K, A43D, L44H, A45H
notes: Murine IgG, supernatant of 293 cells; CDRL1 swap into the C6D4 murine IgG vector, VH not altered; also called C6RGD3-9
binding result [1]: no binding (tested: supernatant at 1/10 dilution)
binding result [2]: no binding (tested: supernatant at 1/10 dilution)
binding result [3]: no binding (tested: supernatant at 1/10 dilution)
binding result [4]: no binding (tested: supernatant at 1/10 dilution)

binding intensity score (0-4) [5]: 2 score 0-4
binding intensity score (0-4) [7]: 1 score 0-4
B15: C6 VH / RGD3-12 Vk murine IgG (antibody, V domains shown)
VH: B1 VH
VL: B2 VL with N39K, A40K, L41Q, A42K
notes: Murine IgG, supernatant of 293 cells; CDRL1 swap into the C6D4 murine IgG vector, VH not altered; also called C6RGD3-12
binding result [1]: no binding (tested: supernatant at 1/10 dilution)
binding result [2]: no binding (tested: supernatant at 1/10 dilution)
binding result [3]: no binding (tested: supernatant at 1/10 dilution)
